B1: Glutaredoxin-3 (Homo sapiens), O76003 (parent)
chain: MAAGAAEAAVAAVEEVGSAGQFEELLRLKAKSLLVVHFWAPWAPQCAQMNEVMAELAKELPQVSFVKLEAEGVPEVSEKYEISSVPTFLFFKNSQKIDRLDGAHAPELTKKVQRHASSGSFLPSANEHLKEDLNLRLKKLTHAAPCMLFMKGTPQEPRCGFSKQMVEILHKHNIQFSSFDIFSDEEVRQGLKAYSSWPTYPQLYVSGELIGGLDIIKELEASEELDTICPKAPKLEERLKVLTNKASVMLFMKGNKQEAKCGFSKQILEILNSTGVEYETFDILEDEEVRQGLKAYSNWPTYPQLYVKGELVGGLDIVKELKENGELLPILRGEN
B2: Glutaredoxin-3 (Homo sapiens), O76003 (parent)
chain: B1 chain
partner: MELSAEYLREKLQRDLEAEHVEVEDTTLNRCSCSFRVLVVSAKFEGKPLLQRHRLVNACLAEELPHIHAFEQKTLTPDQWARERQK

Variants of: B1
Settings: with cpin1_human CIAPIN1, Q6FI81
Sequence of cpin1_human CIAPIN1, Q6FI81 (Q6FI81 whole entry): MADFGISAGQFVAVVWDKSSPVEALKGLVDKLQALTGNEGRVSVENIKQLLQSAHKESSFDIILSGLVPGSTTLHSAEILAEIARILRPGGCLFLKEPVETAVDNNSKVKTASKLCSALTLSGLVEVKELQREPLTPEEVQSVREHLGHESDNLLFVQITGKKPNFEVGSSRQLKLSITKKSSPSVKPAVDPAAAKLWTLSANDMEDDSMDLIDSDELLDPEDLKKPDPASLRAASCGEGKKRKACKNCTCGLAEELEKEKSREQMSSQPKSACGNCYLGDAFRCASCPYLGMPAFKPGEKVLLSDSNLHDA

Variant | effect of a mutation on the interaction
C159S;W197D;P198A;C261S;W299D;P300A | disrupting interaction strength

Variants of: B2
Settings: with bola2_human BOLA2, Q9H3K6

Variant | effect of a mutation on the interaction
C159S;W197D;P198A;C261S;W299D;P300A | disrupting interaction strength
C159S;W197D;P198A | decreasing interaction strength
C261S;W299D;P300A | decreasing interaction strength

— IntAct's records for PubMed 27519415
